# Values joined by “and” are separate entries in the source; they are usually repeats but may differ in a detail not shown here. Equal values may be shown once. Read-outs that look alike come from different tables or passages of the source. Positions of bridges follow the written chain, without caps; N, C: chain ends. Non-standard residues stand in square brackets, D forms with d. No end group written: not given here.
# T1: human His6–AspH315–758 (Homo sapiens, UniProt Q12797)
# T1 construct: a pET-28a(+) vector encoding for N-terminal His6-tagged AspH315–758 (His6–AspH315–758) was transformed into Escherichia coli BL21 (DE3) cells; made in house; host or cells: Escherichia coli BL21 (DE3)
# T1 sequence (Q12797 315-758): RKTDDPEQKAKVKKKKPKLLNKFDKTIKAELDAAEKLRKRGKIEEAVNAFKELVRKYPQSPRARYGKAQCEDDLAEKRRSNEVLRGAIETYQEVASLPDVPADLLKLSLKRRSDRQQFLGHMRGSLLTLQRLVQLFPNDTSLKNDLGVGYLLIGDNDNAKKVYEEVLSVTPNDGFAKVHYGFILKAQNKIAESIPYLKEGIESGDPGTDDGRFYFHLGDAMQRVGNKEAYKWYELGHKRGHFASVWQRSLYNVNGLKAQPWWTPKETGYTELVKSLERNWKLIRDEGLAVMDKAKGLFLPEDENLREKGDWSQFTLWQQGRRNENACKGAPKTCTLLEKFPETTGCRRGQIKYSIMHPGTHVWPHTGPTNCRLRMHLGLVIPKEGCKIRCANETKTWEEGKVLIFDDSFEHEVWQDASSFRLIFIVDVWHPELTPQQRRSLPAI
# T2: His6–AspH_(315–758) (human) (UniProt Q12797)
# T2 sequence: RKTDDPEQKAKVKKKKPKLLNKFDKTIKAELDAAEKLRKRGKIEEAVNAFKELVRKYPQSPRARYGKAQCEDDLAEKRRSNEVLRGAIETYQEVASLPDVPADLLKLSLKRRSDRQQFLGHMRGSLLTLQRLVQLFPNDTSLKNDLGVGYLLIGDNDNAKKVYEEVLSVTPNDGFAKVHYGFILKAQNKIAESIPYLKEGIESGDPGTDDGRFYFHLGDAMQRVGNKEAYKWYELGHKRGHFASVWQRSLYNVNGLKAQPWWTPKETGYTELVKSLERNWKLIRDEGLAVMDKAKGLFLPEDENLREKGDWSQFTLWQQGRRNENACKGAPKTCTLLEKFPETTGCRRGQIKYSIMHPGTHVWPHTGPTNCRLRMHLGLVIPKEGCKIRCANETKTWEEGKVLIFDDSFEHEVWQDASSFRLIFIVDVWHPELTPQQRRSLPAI
# B1: human His6–AspH315–758 (Homo sapiens) (protein)
# chain: RKTDDPEQKAKVKKKKPKLLNKFDKTIKAELDAAEKLRKRGKIEEAVNAFKELVRKYPQSPRARYGKAQCEDDLAEKRRSNEVLRGAIETYQEVASLPDVPADLLKLSLKRRSDRQQFLGHMRGSLLTLQRLVQLFPNDTSLKNDLGVGYLLIGDNDNAKKVYEEVLSVTPNDGFAKVHYGFILKAQNKIAESIPYLKEGIESGDPGTDDGRFYFHLGDAMQRVGNKEAYKWYELGHKRGHFASVWQRSLYNVNGLKAQPWWTPKETGYTELVKSLERNWKLIRDEGLAVMDKAKGLFLPEDENLREKGDWSQFTLWQQGRRNENACKGAPKTCTLLEKFPETTGCRRGQIKYSIMHPGTHVWPHTGPTNCRLRMHLGLVIPKEGCKIRCANETKTWEEGKVLIFDDSFEHEVWQDASSFRLIFIVDVWHPELTPQQRRSLPAI
# notes: a pET-28a(+) vector encoding for N-terminal His6-tagged AspH315–758 (His6–AspH315–758) was transformed into Escherichia coli BL21 (DE3) cells; made in house; host or cells: Escherichia coli BL21 (DE3)
# How the values were obtained:
# human His6–AspH315–758 [1] = target: T1, human His6–AspH315–758; experiment: AspH steady-state kinetics from initial hydroxylation rates (SPE-MS, Michaelis–Menten); assay type: biochemical
# Description: (§1) The reactions were monitored with a rate of 1 sample/25 s using the same SPE-MS configuration as described above. The data were analyzed as described above, and the slopes of the initial reaction rates (Fig. S6) were fitted to a Michaelis-Menten plot using nonlinear regression (GraphPad Prism 5). […] The reactions were monitored by SPE-MS with a rate of 1 sample/25 s using identical configurations as before. The data were analyzed as described, and the slopes of the initial reaction rates (Fig. […] The Morrison equation is as follows, where I is the inhibitor concentration, Ki is the dissociation constant of the inhibitor, ET is the total concentration of active enzyme, and vi/v0 is the fractional enzyme activity ([94]).
# bovine AspH = system: bovine AspH; parameters: method as in PMID 2187868; conditions: cited from earlier work
# [2] = system: human 2OG oxygenases, including the PHDs and FIH; conditions: read-out: 2OG Km app, most other human 2OG oxygenases; cited from earlier work
# [3] = target: T2, His6–AspH_(315–758) (human)
# [4] = target: T2, His6–AspH_(315–758) (human); remark: listed apart in the source
# human His6–AspH315–758 [5] = target: T1, human His6–AspH315–758; experiment: AspH activity assay: SPE-MS time course of peptide hydroxylation; assay type: biochemical; conditions: 0.1 μM His6–AspH315–758, 2.0 μM peptide, 100 μM LAA, 10 μM FAS, 10 μM 2OG, 50 mM HEPES pH 7.5, 20 °C
# Description: The substrate mixture (1.0 ml) containing 2.4 μM peptide, 120 μM LAA, 12 μM FAS, and 12 μM 2OG in 50 mM HEPES buffer (pH 7.5) was added into a well of a 2-ml volume 96-well assay plate (Greiner) at 20 °C under an ambient atmosphere. A blank sample was analyzed using a RapidFire RF 360 high-throughput sampling robot (Agilent) attached to an Agilent 6530 accurate mass quadrupole TOF mass spectrometer operated in the positive ionization mode. The enzyme mixture (0.2 ml), containing 0.6 μM His6–AspH315–758 in 50 mM HEPES buffer (pH 7.5), was then added to the well and thoroughly mixed. The RapidFire sampling robot was programmed to analyze 1 sample/min. The following SPE-MS conditions were used: assay samples were aspirated under vacuum for 0.4 s and loaded onto a C4 SPE cartridge. After loading, the C4 SPE cartridge was washed with 0.1% (v/v) aqueous formic acid to remove nonvolatile buffer salts (5 s, 1.5 ml/min). The peptide was then eluted from the SPE cartridge with 0.1% (v/v) aqueous formic acid in 85/15 (v/v) acetonitrile/water into the mass spectrometer (5 s, 1.25 ml/min). The SPE cartridge was re-equilibrated with 0.1% (v/v) aqueous formic acid (1 s, 1.25 ml/min). The mass spectrometer parameters were capillary voltage (3500 V), fragmentor voltage (150 V), gas temperature (350 °C), gas flow (12 liters/min). The m/z + 2 charge states of the substrate peptide and the product (hydroxylated) peptide were used to extract ion chromatogram data; peak areas were integrated using RapidFire Integrator software (Agilent). The data were exported into Microsoft Excel and used to calculate the percentage of conversion of the hydroxylation reaction using the equation: % conversion = 100 × (integral product peptide)/(integral substrate peptide + integral product peptide).
# [6] = substrate: O=C1O[C@H]([C@@H](O)CO)C(O)=C1O; experiment: AspH steady-state kinetics from initial hydroxylation rates (SPE-MS, Michaelis–Menten); assay type: biochemical, human; conditions: other: LAA varied; 50 μM FAS, 50 μM 2OG; hFX–CP101–119 substrate; n = 3; pH 7.5; 20.0 °C
# Description: as §1
# [7] = 2OG varied, 50 μM FAS, hFX–CP101–119 substrate, n = 3
# [8] = Fe(II) varied, in the absence of LAA, 50 μM 2OG, hFX–CP101–119 substrate, n = 3
# [9] = Fe(II) varied, in the presence of LAA (100 μM), 50 μM 2OG, hFX–CP101–119 substrate, n = 3
molecule,measurement,setting,value
"O=C(O)CCC(=O)C(=O)O [2OG, 2-oxoglutarate]",kcat,human His6–AspH315–758 [1]; [7],0.19 ± 0.03 s⁻¹
same,kcat/Km,human His6–AspH315–758 [1]; [7],320000 ± 70000 M⁻¹ s⁻¹
same,vmax app,"human His6–AspH315–758 [1]; 2OG varied, 50 μM FAS, monitoring hydroxylation of hFX–CP101–119, pH 7.5, 20 °C, n = 3",0.0168 ± 0.0005 µM/s
same,Km,"human His6–AspH315–758 [1]; 2OG varied, 50 μM FAS, monitoring hydroxylation of hFX–CP101–119, pH 7.5, 20 °C, n = 3, read-out: Km app",~0.6 µM and 0.6 µM
same,Km,bovine AspH; read-out: 2OG Km app,~5 µM
same,Km,[2],1 to 25 µM
ammonium iron(II) sulfate hexahydrate [Fe(II)],vmax app,"human His6–AspH315–758 [1]; Fe(II) (FAS) varied, in the absence of LAA, 50 μM 2OG, monitoring hydroxylation of hFX–CP101–119, pH 7.5, 20 °C, n = 3",0.0168 ± 0.0004 µM/s
same,Km,"human His6–AspH315–758 [1]; Fe(II) (FAS) varied, in the absence of LAA, 50 μM 2OG, monitoring hydroxylation of hFX–CP101–119, pH 7.5, 20 °C, n = 3, read-out: Km app",4.76 ± 0.48 µM
same,vmax app,"human His6–AspH315–758 [1]; Fe(II) (FAS) varied, in the presence of LAA (100 μM), 50 μM 2OG, monitoring hydroxylation of hFX–CP101–119, pH 7.5, 20 °C, n = 3",0.0171 ± 0.0005 µM/s
same,Km,"human His6–AspH315–758 [1]; Fe(II) (FAS) varied, in the presence of LAA (100 μM), 50 μM 2OG, monitoring hydroxylation of hFX–CP101–119, pH 7.5, 20 °C, n = 3, read-out: Km app",1.42 ± 0.16 µM
same,kcat,human His6–AspH315–758 [1]; [8],0.19 ± 0.03 s⁻¹
same,kcat/Km,human His6–AspH315–758 [1]; [8],40000 ± 10000 M⁻¹ s⁻¹
same,kcat,human His6–AspH315–758 [1]; [9],0.19 ± 0.03 s⁻¹
same,kcat/Km,human His6–AspH315–758 [1]; [9],130000 ± 30000 M⁻¹ s⁻¹
same,Km,bovine AspH; read-out: Km app for Fe(II),3 µM
hC1r–CP_(165–183) (from UniProt P00736 165-183) (peptide),"Km of AspH for the peptide substrate (steady-state kinetics of peptide hydroxylation, SPE-MS, 50 mM HEPES pH 7.5, 20 °C)",[3],3 μM
hC1s–CP_(147–165) (from UniProt P09871 147-165) (peptide),"Km of AspH for the peptide substrate (steady-state kinetics of peptide hydroxylation, SPE-MS, 50 mM HEPES pH 7.5, 20 °C)",[3],36.5 μM
hFXII–CP_(110–128) (from UniProt P00748 110-128) (peptide),"hydroxylation of the peptide by AspH (SPE-MS), t = 15 min to 200 min",[4],< 1%
"hFX–CP101–119: thioether-linked cyclic peptide of hFX amino acids 101–119, Cys110 thiol linked to N-terminal chloroacetyl group, C-terminal amide ({CH2CO}-[dA]KDGLGEYTCTSLEGFEGK-NH2; thioether N-10; SMILES CC(C)C[C@@H]1NC(=O)CNC(=O)[C@H](CC(=O)O)NC(=O)[C@H](CCCCN)NC(=O)[C@@H](C)NC(=O)CSC[C@@H](C(=O)N[C@H](C(=O)N[C@@H](CO)C(=O)N[C@@H](CC(C)C)C(=O)N[C@@H](CCC(=O)O)C(=O)NCC(=O)N[C@@H](Cc2ccccc2)C(=O)N[C@@H](CCC(=O)O)C(=O)NCC(=O)N[C@@H](CCCCN)C(N)=O)[C@@H](C)O)NC(=O)[C@H]([C@@H](C)O)NC(=O)[C@H](Cc2ccc(O)cc2)NC(=O)[C@H](CCC(=O)O)NC(=O)CNC1=O)",time to complete hydroxylation,human His6–AspH315–758 [5]; SPE-MS,7 min
same,Hydroxylation t = 15 min,human His6–AspH315–758 [5]; % conversion by SPE-MS,>95%
same,Hydroxylation t = 200 min,human His6–AspH315–758 [5]; % conversion by SPE-MS,>95%
same,Hydroxylation t = 15 min,"human His6–AspH315–758 [5]; % conversion by SPE-MS, listed as hFX-CP101-119",> 95%
same,vmax,"human His6–AspH315–758 [1]; peptide as varied substrate, 0.1 μM His6–AspH315–758, 100 μM LAA, 20 μM FAS, 20 μM 2OG, 50 mM HEPES pH 7.5, 20 °C, SPE-MS, mean ± S.D., n = 3",0.0178 ± 0.0013 µM/s
same,Km,"human His6–AspH315–758 [1]; peptide as varied substrate, 0.1 μM His6–AspH315–758, 100 μM LAA, 20 μM FAS, 20 μM 2OG, 50 mM HEPES pH 7.5, 20 °C, SPE-MS, mean ± S.D., n = 3, read-out: Km",1.19 ± 0.26 µM
same,kcat/Km,"human His6–AspH315–758 [1]; peptide as varied substrate, 100 μM LAA, 20 μM FAS, 20 μM 2OG, pH 7.5, 20 °C, mean ± S.D., n = 3",170000 ± 50000 M⁻¹ s⁻¹
same,kcat,"human His6–AspH315–758 [1]; peptide as varied substrate, based on active enzyme 90.8 nM (2,4-PDCA titration), 100 μM LAA, 20 μM FAS, 20 μM 2OG, pH 7.5, 20 °C, mean ± S.D., n = 3",0.20 ± 0.03 s⁻¹
same,substrate/product inhibition of AspH activity,human His6–AspH315–758 [1]; up to 16 μM hFX–CP101–119,neither hFX–CP101–119 nor its hydroxylated product inhibited AspH activity
hFX–CP_(101–119) (from UniProt P00742 101-119) (peptide),"Km of AspH for the peptide substrate (steady-state kinetics of peptide hydroxylation, SPE-MS, 50 mM HEPES pH 7.5, 20 °C)",[3],1.19 μM
"hFX–EGFD1_86–124: EGFD1 (amino acids 86–124) of human coagulation factor X (DGDQCETSPCQNQGKCKDGLGEYTCTCLEGFEGKNCELF-NH2; also: mixture of canonical and noncanonical disulfide isomers; UniProt P00742 86-124, looked up, fragment)",conversion at which hydroxylation slowed (consumption of the noncanonical disulfide isomer),human His6–AspH315–758 [5]; after 5 min,~45%
hProC–CP_(111–129) (from UniProt P04070 111-129) (peptide),"Km of AspH for the peptide substrate (steady-state kinetics of peptide hydroxylation, SPE-MS, 50 mM HEPES pH 7.5, 20 °C)",[3],1.71 μM
B1,kcat,[6],0.16 ± 0.03 s⁻¹

# Reference: PMC7278358, “Kinetic parameters of human aspartate/asparagine–β-hydroxylase suggest that it has a possible function in oxygen sensing” (The Journal of Biological Chemistry, 2020)
